The source of these data is patent publication US11708423B2, “Chimeric engulfment receptor molecules and methods of use” (CERO THERAPEUTICS, INC., priority 2017, dated 2023).

For experiment [1], the system named is ALK+A549 cells. Put plainly: Phagocytosis of ALK inhibitor treated A549 ALK+ cells by CER T cells (fluorescent microscopy). Type of experiment: cell-based. The settings on record: 12 hours, CD4 T cells. From the text: An ELM4-ALK translocation was introduced into A549 cells. […] CD4 T cells are modified to express CER104 or CER117 and labeled with CELLTRACE Violet. CER117 has a polypeptide sequence set forth in SEQ ID NO:144 and comprises a Tim4 binding domain, a Tim4 transmembrane domain, and an engulfment signaling domain comprising a primary engulfment signaling domain comprising a TLR8 signaling domain and a secondary engulfment signaling domain comprising a TRAF6 signaling domain. The ALK+A549 cells were then co-cultured with CER104- or CER117-expressing CD4+ T cells or Mock-transduced (vector only) T cells for 12 hours and images were obtained by fluorescent microscopy at 40× magnification (FIGS. 62A-E). White arrows indicate exemplary phagocytic events (pH rodo red cell targets within CELLTRACE Violet labeled CD4+ T cells).
CER123- and CER126-transduced CD4+ and CD8+ T cells were labeled with CELLTRACE Violet and co-cultured with the A549 ALK-positive cells. Co-cultured cells were imaged by fluorescent microscopy at 63× magnification after 12 hours (FIGS. 63A-F). White arrows indicate exemplary phagocytic events (pHrodo red targets within CELLTRACE Violet-labeled CD4 T cells).
Phagocytosis of Alectinib-treated ALK+A549 cells by CER-expressing T cells was also quantified. […] Bar graph in FIG. 64A represents quantification of percentage phagocytosis calculated as ((number of phagocytic target events)/(total number of effector cells))*100. Events were calculated from fluorescent 3×3 stitched images at 40×resolution after 12 hours of co-culture. Bar graph in FIG. 64B represents quantification of adjusted phagocytic index calculated as (median area ratio of target events in effector cells*phagocytosis). Events calculated from fluorescent 3×3 stitched images at 40×resolution after 12 hours of co-culture.
CER21−, CER27−, CER30−, CER108−, CER110−, CER112−, CER120−, CER123−, CER124−, CER126−, CER127−, or CER104-transduced CD4+ T cells were co-cultured with Alectinib-treated A549 cells at a 1:1 ratio for 12 hours. Phagocytic events were calculated from 3×3 stitched fluorescent microscopy images at 40X resolution. […] Images were obtained after 12 hours of co-culture. Yellow triangles indicate exemplary phagocytic events (pHrodo red targets within CELLTRACE violet labeled CD4+ T cells).
A time course study of phagocytic uptake of tumor cells by CER-transduced T cells was performed. CD4+ T cells were transduced with a lentiviral vector comprising CER122 nucleic acid. Mock-transduced (vector only) CD4+ T cells were used as control. CER122-transduced T cells were labeled with CELLTRACE violet and co-cultured with pHrodo red labeled A549 ALK+ lung adenocarcinoma cells. Fluorescent microscopy images were obtained at 4, 8, and 16 hours co-culture (FIG. 72C), and % phagocytosis (FIG. 72A) and phagocytic index (FIG. 72B) were calculated.

In experiment [2] the test system is SCC152 cells. Put plainly: Magnitude breadth of phagocytosis by CER-transduced CD4+ T cells. Type of experiment: cell-based, human. The settings on record: 8 hours co-culture with CD8/E7 TCR T cells and SCC152 cells. How it is done: Various CER-modified CD4+ T cells were also evaluated for breadth of response to determine whether a particular CER confers a broad phagocytic response of low magnitude (e.g., 10% engulfment in 90% of cells) or a less frequent but strong phagocytic response (e.g., 90% engulfment in 10% of cells) in the host cells. CD8+ T cells were transduced with HPV16 E7 specific TCR as described in Example 5. CD4+ T cells were transduced with lentiviral vectors comprising a CER21, CER27, CER104, CER116, or CER117 nucleic acid. Mock-transduced (vector alone) CD4+ T cell were used as control. CD4+/CER+ and CD8+/E7 TCR+ T cells were stained with CELLTRACE violet. […] HPV16 E7 TCR transduced CD8+ T cells and selected CER transduced CD4+ T cells were mixed at a 1:1 ratio and co-cultured with SCC152 cells at a 1:1 ratio for 8 hours. Phagocytosis of target SCC152 cells by CER-transduced CD4+ T cells was analyzed by fluorescence microscopy. […] The horizontal axis represents the % area of CER-transduced CD4+ T cells having engulfment or % area of […]. This measure was rarely above 40% across CER types tested. The vertical axis represents the proportion of CER-transduced CD4+ T cells that were phagocytic. For CER104, about 20% of CER104-transduced CD4+ T cells have more than 10% engulfment. For CER117-transduced CD4+ T cells, less than 10% have more than 10% engulfment.

The test system of experiment [3] is CER-transduced CD4+ T cells. Put plainly: Mass cytometry (CyTOF) with viSNE marker analysis of CER-transduced CD4+ T cells. The experiment is classed as cell-based, human. Particulars: CD4+ T cells after co-culture with E7 TCR CD8+ T cells and SCC152 cells. An excerpt: CD4+ T cells were transduced with lentiviral vector comprising CER104, CER116, or CER117 nucleic acid. CER104 (SEQ ID NO:133) comprises a Tim4 binding domain, Tim4 transmembrane domain, and an engulfment signaling domain comprising a primary engulfment signaling domain comprising a TLR8 signaling domain and a secondary engulfment signaling domain comprising a DAP12 signaling domain. CER116 (SEQ ID NO:143) comprises a Tim4 binding domain, Tim4 transmembrane domain, and an engulfment signaling domain comprising a primary engulfment signaling domain comprising a TRAF6 signaling domain and a secondary engulfment signaling domain comprising a TLR8 signaling domain. CER117 (SEQ ID NO:144) comprises a Tim4 binding domain, Tim4 transmembrane domain, and an engulfment signaling domain comprising a primary engulfment signaling domain comprising a TLR8 signaling domain and a secondary engulfment signaling domain comprising a TRAF6 signaling domain. CER-transduced CD4+ T cells were co-cultured with E7 TCR-transduced CD8+ T cells and HPV+SCC152 target cells and interrogated by mass cytometry (CyTOF) with viSNE for visualization of high dimensional single cell data (FIGS. 82-84). Intact CER-transduced CD4+ T cells are shown in plots displaying tSNE1 (horizontal) and tSNE2 (vertical) axes. 27 intracellular markers were used for the viSNE analysis. Each dot represents a single cell. […] Red represents high expression and blue represents low expression for each marker. Populations of CD4^+ T cells were generated using a clustering algorithm from all 27 markers and overlaid onto the viSNE map. […] Populations of CD4^+ T cells were generated using a clustering algorithm from all 18 markers and overlaid onto the viSNE map (FIG. 83A). […] Color plots by 18 intracellular markers (CD28, CCR7, CD45RA, PD1, CD127, Perforin, CD49d, CD85j, CD38, CD27, Granzyme B, CD57, CD25, CD69, CD154, CD56, HLA-DR, and TCRγδ) show the phenotype across viSNE ‘islands’ (FIG. 83B). Red represents high expression and blue represents low expression for each marker. Highlighted region with arrow indicates cells expressing T cell activation marker CD69. Populations of CD4^+ T cells were generated using a clustering algorithm from 18 intracellular markers (CD28, CCR7, CD45RA, PD1, CD127, Perforin, CD49d, CD85j, CD38, CD27, Granzyme B, CD57, CD25, CD69, CD154, CD56, HLA-DR, and TCRγ6) and overlaid onto the viSNE map. […] Color plots by the 18 intracellular markers show the phenotype across viSNE ‘islands’ (FIG. 84B). Red represents high expression and blue represents low expression for each marker. Highlighted region with arrow indicates cells expressing the naïve T cell marker CD45RA.

B1: CER117: Tim4 binding and transmembrane domains, TLR8 primary and TRAF6 secondary signaling domains; SEQ ID NO:144 (protein)
chain: MSKGLLLLWLVTELWWLYLTPAASEDTIIGFLGQPVTLPCHYLSWSQSRNSMCWGKGSCPNSKCNAELLRTDGTRIISRKSTKYTLLGKVQFGEVSLTISNTNRGDSGVYCCRIEVPGWFNDVKKNVRLELRRATTTKKPTTTTRPTTTPYVTTTTPELLPTTVMTTSVLPTTTPPQTLATTAFSTAVTTCPSTTPGSFSQETTKGSAFTTESETLPASNHSQRSMMTISTDIAVLRPTGSNPGILPSTSQLTTQKTTLTTSESLQKTTKSHQINSRQTILIIACCVGFVLMVLLFLAFLHHLFYWDVWFIYNVCLAKVKGYRSLSTSQTFYDAYISYDTKDASVTDWVINELRYHLEESRDKNVLLCLEERDWDPGLAIIDNLMQSINQSKKTVFVLTKKYAKSWNFKTAFYLALQRLMDENMDVIIFILLEPVLQHSQYLRLRQRICKSSILQWPDNPKAEGLFWQTLRNVVLTENDSRYNNMYVDSIKQYMSLLNCENSCGSSQSESDCCVAMASSCSAVTKDDSVGGTASTGNLSSSFMEEIQGYDVEFDPPLESKYECPICLMALREAVQTPCGHRFCKACIIKSIRDAGHKCPVDNEILLENQLFPDNFAKREILSLMVKCPNEGCLHKMELRHLEDHQAHCEFALMDCPQCQRPFQKFHINIHILKDCPRRQVSCDNCAASMAFEDKEIHDQNCPLANVICEYCNTILIREQMPNHYDLDCPTAPIPCTFSTFGCHEKMQRNHLARHLQENTQSHMRMLA
modifications: CER117 protein
Regarding B1, the “phagocytosis of A549 cells” value in experiment [1] (1 μM Alectinib) and in experiment [1] (1 μM Crizotinib) was “phagocytosed A549 cells” in each case. Also, the “proportion of CER-transduced CD4+ T cells that have more than 10% engulfment” value in experiment [2] is recorded as “less than 10%”. Moreover, the “viSNE islands expressing intracellular marker IFNγ” value in experiment [3] is reported as “enrichment of islands expressing the intracellular marker IFNγ”.
